Measured values: US20150232544A1
Positions count from the first letter of the chain named.

Legend:
eTau1b = eTau1b (UniProt P10636); experiment: relative binding affinity, method not named; eTau 1b
eTau2 = eTau2 (UniProt P10636); experiment: relative binding affinity, method not named; eTau 2

Sequence of UniProt P10636 (P10636 other isoform, or with tags, fused parts or gaps): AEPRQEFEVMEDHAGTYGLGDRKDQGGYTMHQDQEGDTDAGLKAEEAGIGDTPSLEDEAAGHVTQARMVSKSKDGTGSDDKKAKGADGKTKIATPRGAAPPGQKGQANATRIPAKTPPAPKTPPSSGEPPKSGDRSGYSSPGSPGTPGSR

B1: humanized IPN002 variant VH1/Vk2 (antibody, V domains shown)
VH: EVHLVESGGALVKPGGSLRLSCAASGFSFSKYGMSWVRQAPGKGLEWVATISSSGSRTYYPDSVKGRFTISRDNAKNTLYLQMSSLKSEDTAMYYCSISWDGAMDYWGQGTSVTVSS
VL: DVVMTQSPLSLPVTLGQPASISCKSSQSIVHSNGNTYLEWYLQKPGQSPQLLVYKVSNRFSGVPDRFSGSGSGTDFTLKISRVEAEDVGTYYCFQGSLVPWAFGGGTKVEIK
Kd (eTau1b): 0.558 nM
Kd (eTau2): 0.361 nM

B2: humanized IPN002 variant VH1/Vk3 (antibody, V domains shown)
VH: B1 VH
VL: B1 VL with T90V
Kd (eTau1b): 0.59 nM
Kd (eTau2): 0.444 nM

B3: humanized IPN002 variant VH1/Vk4 (antibody, V domains shown)
VH: B1 VH
VL: B1 VL with V53I, T90V
Kd (eTau1b): 0.597 nM
Kd (eTau2): 0.427 nM

B4: humanized IPN002 variant VH2/Vk1 (antibody, V domains shown)
VH: B1 VH with S84N, K87R, S88A, S112T
VL: B1 VL with V3L
Kd (eTau1b): 0.215 nM
Kd (eTau2): 0.225 nM

B5: humanized IPN002 variant VH1/Vk1 (antibody, V domains shown)
VH: B1 VH
VL: B1 VL with V3L
Kd (eTau1b): 0.737 nM
Kd (eTau2): 0.465 nM

B6: humanized IPN002 variant VH2/Vk2 (antibody, V domains shown)
VH: B1 VH with S84N, K87R, S88A, S112T
VL: B1 VL
Kd (eTau1b): 0.229 nM
Kd (eTau2): 0.283 nM

B7: humanized IPN002 variant VH2/Vk3 (antibody, V domains shown)
VH: B1 VH with S84N, K87R, S88A, S112T
VL: B1 VL with T90V
Kd (eTau1b): 0.287 nM
Kd (eTau2): 0.261 nM

B8: humanized IPN002 variant VH2/Vk4 (antibody, V domains shown)
VH: B1 VH with S84N, K87R, S88A, S112T
VL: B1 VL with V53I, T90V
Kd (eTau1b): 0.52 nM
Kd (eTau2): 0.354 nM

B9: humanized IPN002 variant VH3/Vk1 (antibody, V domains shown)
VH: B1 VH with H3Q, S84N, K87R, S88A, S112T
VL: B1 VL with V3L
Kd (eTau1b): 0.529 nM
Kd (eTau2): 0.705 nM

B10: humanized IPN002 variant VH3/Vk2 (antibody, V domains shown)
VH: B1 VH with H3Q, S84N, K87R, S88A, S112T
VL: B1 VL
Kd (eTau1b): 0.614 nM
Kd (eTau2): 0.408 nM

B11: humanized IPN002 variant VH3/Vk3 (antibody, V domains shown)
VH: B1 VH with H3Q, S84N, K87R, S88A, S112T
VL: B1 VL with T90V
Kd (eTau1b): 0.689 nM
Kd (eTau2): 0.471 nM

B12: humanized IPN002 variant VH3/Vk4 (antibody, V domains shown)
VH: B1 VH with H3Q, S84N, K87R, S88A, S112T
VL: B1 VL with V53I, T90V
Kd (eTau1b): 0.382 nM
Kd (eTau2): 0.447 nM

B13: humanized IPN002 variant VH4/Vk1 (antibody, V domains shown)
VH: B1 VH with H3Q, S84N, K87R, S88A, S97A, S112T
VL: B1 VL with V3L
Kd (eTau1b): 0.359 nM
Kd (eTau2): 0.405 nM

B14: humanized IPN002 variant VH4/Vk2 (antibody, V domains shown)
VH: B1 VH with H3Q, S84N, K87R, S88A, S97A, S112T
VL: B1 VL
Kd (eTau1b): 0.483 nM
Kd (eTau2): 0.451 nM

B15: humanized IPN002 variant VH4/Vk3 (antibody, V domains shown)
VH: B1 VH with H3Q, S84N, K87R, S88A, S97A, S112T
VL: B1 VL with T90V
Kd (eTau1b): 0.313 nM
Kd (eTau2): 0.473 nM

B16: humanized IPN002 variant VH4/Vk4 (antibody, V domains shown)
VH: B1 VH with H3Q, S84N, K87R, S88A, S97A, S112T
VL: B1 VL with V53I, T90V
Kd (eTau1b): 0.535 nM
Kd (eTau2): 0.564 nM
